Assay results as given in PMC8012654.

Target: recombinant GST-αII spectrin peptide, codons 891-1231 (repeats 9 and 10), R1098Q (mouse) (UniProt P16546)
Experiment: SPR; BIAcore T200, CM5 chip; GST-spectrin peptides captured by their GST tag on amine-coupled goat anti-GST antibody to 1,000 RU; CaM 20 nM to 500 nM flowed in HBS running buffer with 2 mM CaCl2; 25 °C, 20 µl/min; global fit, 1:1 Langmuir model with mass transport step; KD = kd/ka

purified bovine brain calmodulin (CaM) (from UniProt P62157 1-149) (natural protein)
reduction in affinity for CaM relative to the WT peptide: 19%
